Laboratory results from the nanobody polyreactivity screen of Harvey et al. (2022).

Assay: yeast display, Sf9 membrane polyspecificity reagent, FACS + sequencing; frameworks hold sequencing errors
How it was run: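 Using colony PCR, genes from sorted yeast display clones were amplified, then sequenced on MiSeq at 2 × 250 and filtered by CDR length. The clones had been stained with 10% biotinylated, detergent-solubilized Sf9 membrane reagent for 1 hour at 4 °C and sorted by FACS into low and high (top ~1%) gates on anti-HA and streptavidin fluorescence. Polyreactivity labels come from the gate of origin.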

Row | Sequence | polyreactivity (PSR sort gate)
1 | QVQLVESGGGLVQAGGSLRLSCAATGFTFYKNAMGWYRQAAGKDRELVAAITRGGTTNYADSVMGRFTISRDNAKNTVYLQMNSLKEEDTAVYYCAKQGRYLTRYGYWGQGTQVTVSS | high polyreactivity
2 | QVQLQESGGGLVQAGGSLRLSCSASGTISDSGLMGWYRQAPGKERELVAGISSGGITNDADSVNRRFTISRDNALFTVYLQMNSLKPEDTALYWGEGTQVTVSS | low polyreactivity
3 | QVQLVESGGGLVQAGGSLRLSCAASGRIFYYNAMGWYRQAPGKERELVAAIRGGGSTNYADSVKGRFTISRDNAKNTVYLQMNSLKPEDTAVYYCAAPWTQILDYWGQGTQVTVSS | low polyreactivity
4 | QVQLVESGGGLVQAGGSLRLSCAASGRIFIKNAMGWYRQAPGKERELVAAISSGSSTYYADSVKGRFTISRDNAKNTVYLQMNSLKPEDTAVYLYGSWGQGTQVTVSS | low polyreactivity
5 | QVQLVESGGGLVQAGGSLRLSCAASGSSFYYYTMGWYRQAPGKEMELVAAITYSGGSTRYADSVKGRFTISRDNAKNTVYLQMNSLKPEDTAVYYCAAELTEWTNGFDYWGQGTQVTVSS | high polyreactivity
6 | QVQLVESGGGLVQAGGSLRLSCAASGSIFVSNAMGWYRQAPGKEREFDAGITRRGGRTYYADSVKGRFTISRDNAKNTVYLQMNSLKPEDTPVYYCAAKSTTSRFDYWGQGTQVTVSS | high polyreactivity
7 | QVQLVESGGGLVQAGGRLRLSCAASGRTFKDYAMGWYRQAPGKERELVAGINGSGGSTYYADSVKGRFTISRDNAKNTVYLQMNSLKPEDTAVYYCNADFGYWWDGRRYDYWGQGTQVTVSS | low polyreactivity
8 | QVQLVDSGGGLVQAGGSLRLSCAASGSIFDSYVKGWYRQAPGKERELVAAITYSGGSTYADSVKGRFTISRDNAKNTVYLQMNSLKPEDTAVYYCAAASYFYMFLLEDYWGQGTHVTVSS | low polyreactivity
9 | QVQLVESGGGLVQAGRSLRLSCAASGIISYRNGMGGYRQAPGKERELVASISKRADSTYYADSVKGRFTISRDNAKNTVYLQLNSLKPEDTAVYYCAARRLITCYGQTHYGYWGQGTQVTVSS | high polyreactivity
10 | QVQLVESGGGLVQAGGSLRLSCAASGFTFTRNAMGWYRQAPGKEREFVAAITRSGGSTYYADSVKGRFTISRDNAKNTVYLQMNSLKPEDTAVYYCNKRSPSTIRFDYWGQGTQVTVSS | high polyreactivity
11 | QVQLVESGGGLVQAGRSLRLSCAASGRTFRGYAMGWYRQAPGKERELVAAITWRGGSTYYADSVKGRFTISRDNGKNTVYLLMNSLKPEDCAVYYCNARQWPLAYEYWGLGTQVTVSS | high polyreactivity
12 | QVQLVESGGGLVQAGGSLRLSCAPSGFIFNRNTMGWYRQAPGKERELVAAISFRGTSTYYADSVKGRFTISRDNAKNTVYLQMNSLKPEDTAVYYCNRARILVWSKYGYWGQGTQVNVSS | high polyreactivity
13 | QVQLVESGGGLVQAGGSLRLSCAASGSTFNRYAMGWYRQAPGKERELVASISCSGGGSTYYADSVKGRFTISRDNAKNTVYLQMNSLKPEDTAVYYCAVSRDSYGGKGSVLYDYWGQGTQVTVSS | low polyreactivity
14 | QVQLVESGGGLVQAGGTLGLSCAASGFIITQYAMGRYRQAPGKERELVAAISGNGGRTYYADSVKGRFTISRDNAKNTVYLQLNSLKPEDTAVYYCAVTRPGRRYPFGYDYWGQGTQVTVSS | high polyreactivity
15 | QVQLVESGGGLVQAGGSLRLSCAASGLTFGVYAMGWSRQAPGKERELVAAIDLSDDITYYADSVKGRFTISRDNAKNTVYLQMNSLKPEDTAVYYSAAEYYLYSTYTVSYWKYDYWGQGTQVTVSS | high polyreactivity
16 | QVQLVESGGGLVQAGGSLRLSCAASGSIFDYNAMGWYRQAPGKERELVASISGDSGSTYYADSVKGRFTISRDNAKNTDYLQMNSLKPEDTAVYYCAAPYVSWDYRYYYWGQGTQVTLSS | low polyreactivity

Row | Sequence | polyreactivity (PSR sort gate)
17 | QVQLVESGRGLVQAGGSLRLRGAASGSTSWSNAMGWYRQAPGKERELVAAITTGASTYYADSVKGRFTSSRDNAKNTVYLQMNSLKPEDTAVYYCAADPWVLWSYYYWGQGTQVTVSS | low polyreactivity
18 | EEELVESGGGLVQPGGSLRLSCAASGSIFTHYSMGWYRQAPGKERELVAAISWSGGSTYYADSVKGRFTISRDNAKYTVSLQMNSLKAEDTAVYYCAAETYWGDDYWGQGTQVTVSS | high polyreactivity
19 | QVQLVESGGGLVQAGGSLRLSCAASGRIYWNTMGWYRQAPGKERQLVASISTGGGRTYYADSVKGRFTISRDNAKNTVYLQMNSLKPEDTAVYYCAARRGAGYSRFNYWGQGTQVTVSS | high polyreactivity
20 | QVQLVESGGGLVQAGGSLRLSCAASGFIFPHYTMGWYRPAPGKERELVAAISSSGGSTYYADSVKGRFTISRDNANNTVYLQMNSLKPEDTAVYYCAADWSITYGDGGYWGQGTQVTVSS | low polyreactivity
21 | QVQLVESGGGLVQAGGSLRLSCAASGSIFGNAMGWYRQAPGKEREVVAAISSSGSSTYYADSVKGRFTISRDNAKNTVYFQMNSLKPEDTAVYYCAKRRRSAAPKYDYWGQGTQVTVSS | high polyreactivity
22 | QVQLVESGGGLVQAGGSLRLSCAASGSIYRTNAMGWYRQAPGKERELVAAITGSGGSTYYADSVKGRFTISRDNAKNTVYLQMNSLKPEDTAVYYCAAEFGSFVSPYNYYYWGQGTQVTVSS | low polyreactivity
23 | QVQLVESGGGLVQAGGSLRLSCAASGFTFYRYTMGWYRPARGKESELVARITYSGGSTYYADSVKGRFTISRDNAKNTVYLQLNSVKPVDTAVYYCNARSDFYSRYGYKYDYWGQGTQVTVSS | high polyreactivity
24 | QVQLVESGGGLVQAGGSLRLSGAASGRTLVPYAMGWYRQAPGKERELVAAISSGGSTNYADSVKGRFRISRDNAKNTVYLQMNSLKPEDTAVYYCAYCGQGTQVTVSS | low polyreactivity
25 | QVQLVESGGGLDQAGGSLRLSCADSGRTFYIYAMGWYRQAPGKERELVAAITSVGSTNYADSVKGRFTISRDNAKNTVYLQMNSLKPEDTAVYYCAAESTEGTSGDYDYWGQGTQVTVSS | low polyreactivity
26 | QVQLVESGGGLVQAGGSLRLSCAASGIFDYYVMGWYRQAPGKERELVAAISKSDGSTYYADSVKGRFTISRDNAKNTVYLQMNSLKQEDTAVYYCNAKLYYNRMDYWGQGTQVTVSS | low polyreactivity
27 | QVQLVESGGGLVQAGGSLRLSCAASGFIFSSYAMGWYRPAPGKERELVAAISKSGGRTYYADSVKGRFTISRDNAKNTVYLQMNSLKPEDTSVYYCAKDVSDPFYDPFEYWGQGTQVTVSS | low polyreactivity
28 | QVQLVESGGGLVQAGGSLRLSCAASGSIFPGNAMGWYRPAPGKERELVAVIDFSGASTYYADSVKGRYTISRDNAKNTVYLQMNCLKPEVTADFWGQGTQVTVSS | low polyreactivity
29 | QVQLVESGGGLVQAGGSLRLSCAASGLILYWYAMGWYRQAPGKERELVAVITRSGRTNYADSVKGRFTSSRDNAKNTVYLQMNSLKPEDTAVYYCAADYYTSFYSWPPYDYWGQGTQVTVSS | low polyreactivity
30 | QVQLVESGGGLVQAGGSLRLSCAASGSIFYDYAMGWYRQAPGKERELVAALTNDDSSTYYADSVKGRFTISRDNAKNTVYLQMNSLKPEDTAVYYCRFKYAVAHQFWVYRYDYWGQGTQVTVSS | low polyreactivity
31 | QVQLGESGGGLVKAGGSLRLSCAASGRIFFDYGMGGYRQAPGKERELVADITRGGGSTYYADSVKGRFTISRDNAKNTVYLQINSQKPEDTAVYYCAKESSCYYPQRFDYWGQVTQVTVSS | low polyreactivity
32 | QVQLVESGGGLVQAGGSLRLSCAASGSTFTYYTMGWSRQAPGKERELVAASSRTTGSTYYADSVKGRFTISRDNAKNTVYLQMNSLIPEDTAVYYCAAQSYKILLYFIGTAGDGYWGQGTQVTVSS | low polyreactivity
